In article PMC9598537:

Experiments:
[1] = target: AR9 chaperonin (gp228, product of gene 228 of bacteriophage AR9 Bacillus subtilis) (bacteriophage AR9 (Bacillus subtilis phage)); assay: SAXS; gp228 at 0.5 to 7.0 mg/mL, 20 °C, P12 beamline PETRA III; oligomeric state from the excluded volume Vp
[2] = target: AR9 chaperonin (gp228, product of gene 228 of bacteriophage AR9 Bacillus subtilis) (bacteriophage AR9 (Bacillus subtilis phage)); assay: cryo-EM structure; purified apo gp228 in 50 mM Tris-HCl pH 7.5, 10 mM MgCl2, 100 mM KCl; single particle analysis, maps with no symmetry and with C7 symmetry; homology model flexibly fitted into the map

## AR9 chaperonin (gp228, product of gene 228 of bacteriophage AR9 Bacillus subtilis) (natural protein)
[1]
  stoichiometry N: 7
[2]
  stoichiometry N: 7
